Where a chain is given by its changes, count along the chain named. Numbers in names are those of the source. Read-outs that look alike come from different tables or passages of the source.

Results on eight molecules are retold here after paper PMC8789800.

Experiment [1] concerns RSK2 and ERK2-RSK2 complex. Nature of the experiment: Size-exclusion chromatography with fluorescently labeled ORF45(16-76). The settings on record: peptide labeled with a fluorescent dye. Format: binding.
For another experiment, the system named is ppERK2 → RSK2. Nature of the experiment: In vitro kinase assay, 10 nM ppERK2 phosphorylating 2 µM RSK2, phosphorimaging. It is filed as biochemical, Human. The settings on record: 50 µM ORF45 peptide; tested on ppERK2 → RSK2 and MKK1 → ERK2 → RSK2. The procedure:
(§1) Phosphorimaging results are plotted on the panel at the right based on one experiment (N = 1). b In vitro kinase assay results on RSK substrate phosphorylation. […] The schematic panel on the right highlights the hierarchical phosphorylation events (one-end arrows) and the PPIs (two-end arrows) required for NTK mediated phosphorylation of RSK substrates.
Radioactivity based kinase reactions were carried out in 50 mM HEPES, pH 7.5, 100 mM NaCl, 5 mM MgCl2, 0.05% IGEPAL, 5% glycerol, 2 mM DTT using recombinant expressed and purified proteins in the presence of 250 μM ATP and ∼5 μCi of [γ-^32P]ATP. Reactions were stopped with protein loading sample buffer complemented with 20 mM EDTA, boiled, and then subjected to SDS-PAGE. Gels were dried before phosphorimaging by a Typhoon Trio+ scanner (GE Healthcare).

The target of experiment [2] is double-phosphorylated ERK2 (ppERK2) (human) (UniProt P28482). As to the kind of experiment: fluorescence polarisation.
The subject of experiment [3] is activated RSK2. Nature of the experiment: In vitro kinase assay of EIF4B RxxS/T phosphorylation reporters with activated RSK2, Anti-RxxpS/pT Western-blot. The conditions noted are these: 10 µM GST-fusion construct, 100 nM activated RSK2; mean ± SD, N = 3.
Experiment [4] has as its system activated RSK2. Format: biochemical, Human. The settings on record: 10 µM GST-fusion substrate, 0.5 µM activated RSK2, no competitor.
In the next experiment the test system is MBP-NTK_RSK2. It is filed as binding, Human. The settings on record: GST-fusion preys, 10–20 µM; Coomassie gel; N = 1; ORF45 = GST-ORF45(16-76).
For another experiment, the system named is MKP3. As to the kind of experiment: ppERK2 dephosphorylation by MKP3, quantitative Western-blot. The conditions noted are these: 1 μM ppERK2, 1 μM MKP3; 1 μM RSK2; 1 or 5 μM ORF45(16-76). It is filed as biochemical, human.
Text: as §1
Sequences of oligonucleotides used for cloning are listed in Supplementary Table 4.

For experiment [5], the system named is activated RSK2. Nature of the experiment: In vitro kinase assay of RHDF1(1-289) wild type and F281A with activated RSK2, Anti-RxxpS/pT Western-blot.

double-phosphorylated ERK2 (ppERK2) (human), sequence (P28482 whole entry, the tested form may be a part): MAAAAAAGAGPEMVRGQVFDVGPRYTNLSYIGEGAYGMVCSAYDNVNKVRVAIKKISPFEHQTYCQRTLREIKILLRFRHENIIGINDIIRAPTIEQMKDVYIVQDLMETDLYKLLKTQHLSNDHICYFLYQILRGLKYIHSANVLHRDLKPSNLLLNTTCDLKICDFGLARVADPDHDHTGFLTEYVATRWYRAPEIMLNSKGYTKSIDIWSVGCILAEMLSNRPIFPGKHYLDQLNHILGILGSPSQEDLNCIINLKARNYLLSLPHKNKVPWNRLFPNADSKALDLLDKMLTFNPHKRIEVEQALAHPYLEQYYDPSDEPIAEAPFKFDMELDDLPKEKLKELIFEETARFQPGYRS

Turning to “ORF45(16-76): 61 amino acid long N-terminal ORF45 peptide, expressed as GST-fusion and cleaved; GST-fusion in Fig. 7 and 8”, the “binding in size-exclusion chromatography” value in experiment [1] is reported as “binds to RSK2 as well as to the ERK2-RSK2 complex”. In the experiment with ppERK2 → RSK2, the “effect on RSK2 phosphorylation in vitro” value is “blocked RSK2 phosphorylation”.

In the case of unlabeled ORF45(16-40) peptide, the dissociation constant (Kd) in experiment [2] stood at 800 nM.

“411-ETQERERSRTGSESSQTGTS-430 [RxxSEIF4B, EIF4B region 411-430 with S422, RSK phosphorylation probe lacking a VF-motif]” showed a RxxSEIF4B phosph. rate in the experiment on activated RSK2 [3] of 0.03 ± 0.01 arb. unit / min. Besides, the initial phosphorylation rate in the experiment with activated RSK2 [4] (Sample_1) came to 0.3562; in the experiment with activated RSK2 [4] (Sample_2), 0.455; in the experiment on activated RSK2 [4] (Sample_3) it was 0.379; in the experiment with activated RSK2 [4] (mean N=3) it was 0.3967.

For the molecule “ORF45(16-76)-F66A: VF-motif mutated version of GST-ORF45(16-76)”, in the experiment on MBP-NTK_RSK2, the “binding in MBP pull-down, RSK2 NTK” value is reported as “did not show detectable binding”.

For the molecule “RSK2: purified human RSK2 added to the ppERK2 dephosphorylation assay”, the “protection of ppERK2 from dephosphorylation by MKP3” value in the experiment on MKP3 is reported as “did not protect ppERK2 from dephosphorylation”.

B1: SOS1: human SOS1 construct 1101-1170 (legend also 1101-1171) (protein, UniProt Q07889 1101-1170, looked up, fragment)
chain: VCSVFDSDHSSPFHSSNDTVFIQVTLPHGPRSASVSSISLTKGTDEVPVPPPVPPRRRPESAPAESSPSK
As to B1, the initial phosphorylation rate is 1.226 in the experiment on activated RSK2 [4] (Sample_1), 1.21 with activated RSK2 [4] (Sample_2), 0.88 in the experiment with activated RSK2 [4] (Sample_3) and 1.105 in the experiment on activated RSK2 [4] (mean N=3).

B2: RHDF: human RHDF1 construct 1-289, wild type (protein, UniProt Q96CC6 1-289, looked up, fragment)
chain: MSEARRDSTSSLQRKKPPWLKLDIPSAVPLTAEEPSFLQPLRRQAFLRSVSMPAETAHISSPHHELRRPVLQRQTSITQTIRRGTADWFGVSKDSDSTQKWQRKSIRHCSQRYGKLKPQVLRELDLPSQDNVSLTSTETPPPLYVGPCQLGMQKIIDPLARGRAFRVADDTAEGLSAPHTPVTPGAASLCSFSSSRSGFHRLPRRRKRESVAKMSFRAAAALMKGRSVRDGTFRRAQRRSFTPASFLEEDTTDFPDELDTSFFAREGILHEELSTYPDEVFESPSEAAL
Turning to B2, the initial phosphorylation rate in the experiment with activated RSK2 [4] (Sample_1) is 0.1656; with activated RSK2 [4] (Sample_2), 0.1405; in the experiment on activated RSK2 [4] (Sample_3) it was 0.1427; with activated RSK2 [4] (mean N=3), 0.1496. Also, the “RxxS motif phosphorylation, Normalized to RHDF_Mean” value in the experiment with activated RSK2 [5] (Sample_1) is 1.075; with activated RSK2 [5] (Sample_2), 0.9889; in the experiment on activated RSK2 [5] (Sample_3) it was 0.9363; with activated RSK2 [5] (mean N=3), 1.

B3: RHDF_F281A: RHDF1_1-289 with the VF motif mutated (F281A) (protein, UniProt Q96CC6 1-289, looked up, variant F281A)
chain: B2 chain with F281A
For the molecule B3, the “RxxS motif phosphorylation, Normalized to RHDF_Mean” value stood at 0.1221 in the experiment on activated RSK2 [5] (Sample_1), 0.1251 in the experiment with activated RSK2 [5] (Sample_2), 0.1185 in the experiment on activated RSK2 [5] (Sample_3) and 0.1219 in the experiment with activated RSK2 [5] (mean N=3).
